# Target: Recombinant SARS-CoV-2 RBD (residues R319–F541) (SARS-CoV-2, UniProt P0DTC2)
# Experiment: SPR
# Conditions: both partners purified
binder,measurement,value
"REGN10987 (class III) (antibody, V domains shown) VH: QVQLVESGGGVVQPGRSLRLSCAASGFTFSNYAMYWVRQAPGKGLEWVAVISYDGSNKYYADSVKGRFTISRDNSKNTLYLQMNSLRTEDTAVYYCASGSDYGDYLLVYWGQGTLVTVSS VL: QSALTQPASVSGSPGQSITISCTGTSSDVGGYNYVSWYQQHPGKAPKLMIYDVSKRPSGVSNRFSGSKSGNTASLTISGLQSEDEADYYCNSLTSISTWVFGGGTKLTVL",Kd,< 0.01 nM
